Results: IntAct's records for PubMed 16388599

B1: Tyrosine-protein phosphatase non-receptor type 1 (Homo sapiens), P18031 (parent)
chain: MEMEKEFEQIDKSGSWAAIYQDIRHEASDFPCRVAKLPKNKNRNRYRDVSPFDHSRIKLHQEDNDYINASLIKMEEAQRSYILTQGPLPNTCGHFWEMVWEQKSRGVVMLNRVMEKGSLKCAQYWPQKEEKEMIFEDTNLKLTLISEDIKSYYTVRQLELENLTTQETREILHFHYTTWPDFGVPESPASFLNFLFKVRESGSLSPEHGPVVVHCSAGIGRSGTFCLADTCLLLMDKRKDPSSVDIKKVLLEMRKFRMGLIQTADQLRFSYLAVIEGAKFIMGDSSVQDQWKELSHEDLEPPPEHIPPPPRPPKRILEPHNGKCREFFPNHQWVKEETQEDKDCPIKEEKGSPLNAAPYGIESMSQDTEVRSRVVGGSLRGAQAASPAKGEPSLPEKDEDHALSYWKPFLVNMCVATVLTAGAYLCYRFLFNSNT

Variants of: B1
Details: with cav1_human CAV1, Q03135
Chain of cav1_human CAV1, Q03135 (Q03135 whole entry): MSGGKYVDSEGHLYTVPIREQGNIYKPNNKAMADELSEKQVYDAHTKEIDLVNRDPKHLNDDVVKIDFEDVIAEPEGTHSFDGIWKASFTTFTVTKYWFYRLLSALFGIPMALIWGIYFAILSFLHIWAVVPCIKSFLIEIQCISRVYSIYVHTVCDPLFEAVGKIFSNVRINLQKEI

Variant | effect of a mutation on the interaction
D181A | disrupting interaction
